These results are taken from PMC10478522.

The target of assay [1] is AcrIC9 from Rhodobacter capsulatus (Rhodobacter capsulatus). Description: SEC-MALS; purified AcrIC9 alone on Superdex 200 Increase 10/300 GL, 20 mM Tris-HCl pH 8.0, 150 mM NaCl, room temperature; dimer to monomers.
Assay [2] has as its target type IC cascade from Neisseria lactamica (NlaCascade/crRNA complex) (Neisseria lactamica). The assay can be described thus: SPR; BIAcore T200, NlaCascade/crRNA complex captured on a Ni-NTA chip (711-826 RU), AcrIC9 injected in twofold dilutions from 125 nM (8 to 125 nM), HBS-P buffer (0.01 M HEPES pH 7.4, 0.15 M NaCl, 0.005% P20), 25°C, 1:1 binding model. Background: Surface plasmon resonance follows binding to a sensor surface in real time, without labels.

Assay [3] concerns the target type IC cascade from Neisseria lactamica with crRNA (Neisseria lactamica). Description: SPR; BIAcore T200; NlaCascade/crRNA complex captured on a Ni-loaded NTA chip (711-826 RU); AcrIC9 injected in twofold dilutions from 125 nM at 30 ul/min, 120 s contact, 240 s dissociation; 25 °C; HBS-P buffer (0.01 M HEPES pH 7.4, 0.15 M NaCl, 0.005% Surfactant P20); 1:1 binding model.

B1: AcrIC9 from Rhodobacter capsulatus (natural protein)
chain: METKMTSFYKITAYNSQALYFWGTDADVDRYVDWLNRDREINVYAAEAIPEAEWAQYEGRDDVLSGEECGWDDFMSAEA
For the molecule B1, in assay [1], the stoichiometry N (as a rule, the number of molecules, sites or subunits per partner or assembly) stood at 2. Besides, in assay [2], the Kd (commonly the free concentration of one partner at which half of the binding sites on the other are occupied at equilibrium, for simple one-to-one binding) amounted to 4.32 nM. In assay [3], the Kd was 43.2 nM; the koff (in general, the first-order rate constant of dissociation) amounted to 0.00404 s⁻¹; the kon (usually a measure of how fast the partners come together) worked out at 93500 M⁻¹ s⁻¹.
